The target in assay [1] is Mouse P-gp-ECL1&4-h18 (mouse) (UniProt P21447). As to the kind of experiment: flow cytometry on cells; apparent Kd; HeLa cells expressing the P-gp variant (300,000 cells/assay) stained with UIC2 at 0.01 to 3 µg per 100,000 cells for 30 min at 37 °C; GraphPad Prism. A general note: In flow cytometry, cells or beads pass a laser one at a time.
For assay [2], the target named is Mouse P-gp-ECL13&4-h19 (mouse) (UniProt P21447). Described as above.
Assay [3] has as its target Mouse P-gp-ECL1&4-h18 (mouse) (UniProt P21447). The assay is described as follows: flow cytometry on cells; UIC2 shift assay: HeLa cells incubated 5 min at 37 °C with DMSO or 20 µM cyclosporine A before UIC2 at saturated concentration (3 µg/100,000 cells), 30 min; FITC-labeled anti-mouse secondary antibody.
Assay [4] has as its target Mouse P-gp-ECL13&4-h19 (mouse) (UniProt P21447). The description is as above.

For UIC2 monoclonal antibody, the Kd in assay [1] worked out at 11.7 nM; in assay [2], 5.1 nM. Further, the fold increase of UIC2 binding after 20 µM cyclosporine A against DMSO in assay [3] lay within 1.4 to 1.7 fold; in assay [4], 1.2 to 1.4 fold.

(Values after publication PMC6109178.)
